Literature values, collected in PMC8281132.

Target: CD155 (Homo sapiens) (UniProt P15151)
Chain of UniProt P15151 (P15151 21-343): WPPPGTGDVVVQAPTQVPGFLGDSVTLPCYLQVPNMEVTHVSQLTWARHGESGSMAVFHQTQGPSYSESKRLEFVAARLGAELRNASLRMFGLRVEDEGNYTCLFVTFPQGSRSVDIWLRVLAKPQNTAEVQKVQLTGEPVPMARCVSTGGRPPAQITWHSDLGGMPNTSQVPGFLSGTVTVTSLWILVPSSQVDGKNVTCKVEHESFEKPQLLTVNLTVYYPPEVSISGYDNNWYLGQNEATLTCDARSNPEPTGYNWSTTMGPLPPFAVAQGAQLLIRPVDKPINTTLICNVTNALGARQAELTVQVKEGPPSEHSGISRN

## TIGIT (from UniProt Q495A1)
  Kd: 2 nM
